Data published in PMC9683001.

Tested on: AMV coat protein (CP) (Alfalfa mosaic virus)
Experiment: EMSA
Details: 10 mM Na-phosphate pH 7.0, 1 mM EDTA, 5 U human placental RNase inhibitor, 10 uL, 30 min at room temperature; RNA preheated 65 C 5 min; 1.2% agarose gel in TAE

Substance	Kd [µM]
5'UTR-WT (AMV RNA3 5' UTR, plus strand)	26.1
5'UTRΔ140	41.1
